Test results from US20250340881A1, “PHARMACEUTICAL COMPOSITION FOR TREATING CANCER COMPRISING FOXM1 MUTANT OR FOXM1 SHRNA” (Industry-University Cooperation Foundation Hanyang …, priority 2022, published 2025).

Key:
A549 lung cancer cells = experiment: Transwell migration assay of A549 cells expressing FoxM1 WT or point mutants; assay type: cell-based; settings: for migration / motility of cancer cells (in words): Transwell migration assay, A549
Protocol: To examine the effects of FoxM1 WT, phosphorylation, and non-phosphorylated point mutants on the motility of cancer cells, the migration assay was performed in A549 lung cancer cells expressing mutant proteins.
Specifically, 5×10^4 cells of lung cancer cells A549 expressing each of WT, phosphorylation, and non-phosphorylated point mutant of FoxM1 were seeded in an 8.0 μm, 24 well insert, and the inserts were placed in a 24-well plate after medium with 10% fetal bovine serum (FBS) was dispensed in the 24-well plate. For the positive control, 0.5 ml of RPMI1640 (10% FBS) containing 5 ng/ml of TGF-β was used. After 72 hours from cell seeding, 500 μl of 4% paraformaldehyde was dispensed, washed three times with 1×PBS, and stained with 0.05% crystal violet solution for 5 minutes. After 5 minutes, the cells were washed five times with 1×PBS, and the staining intensity was measured using the Odyssey infrared imaging system.
Specifically, 5×10^4 cells of lung cancer cells A549 expressing control and FoxM1 WT were seeded in an 8.0 μm, 24 well insert, and the inserts were placed in a 24-well plate after medium with 10% fetal bovine serum (FBS) was dispensed in the 24-well plate. For the positive control, 0.5 ml of RPMI1640 (10% FBS) containing 5 ng/ml of TGF-β was added and used. After 72 hours from cell seeding, 500 μl of 4% paraformaldehyde was dispensed, washed three times with 1×PBS, and stained with 0.05% crystal violet solution for 5 minutes. After 5 minutes, the cells were washed five times with 1×PBS, and the staining intensity was measured using the Odyssey infrared imaging system.

A549 cells [1] = experiment: Caspase-3 assay in A549 cells over-expressing FoxM1 point mutants; assay type: cell-based; settings: doxycycline 3 μg/ml 48 hours, control set to 1
Protocol: Furthermore, to observe the degree of apoptosis of cancer cells in A549 cells expressing each of the phosphorylation and non-phosphorylated point mutants of FoxM1, a caspase-3 assay was performed to measure the activity of the caspase-3 enzyme (FIG. 5F). A549 cells expressing each protein containing the phosphorylation and non-phosphorylation point mutation of FoxM1 were administered with 3 μg/ml of doxycycline for 48 hours to induce over-expression of each mutant. The cells were lysed and reacted with the fluorescence substrate of caspase-3 (Ac-DEVD-AMC) for 1 hour, and then the fluorescence value (Ex. 380 nm/Emi. 430 nm) was measured using an electron spectrometer (SpectraMax M4 system). The measured fluorescence value indicated the activity of caspase-3, and the relative measurement value in each experimental group was calculated and depicted by a graph, when the measured fluorescence value of the control group set to 1.

lung tissues = experiment: CD68 and CD163 immunostaining and immunoblot of lung tissues of injected mice; assay type: in vivo; settings: for protein expression of CD68 and CD163, immunoblot: lung tissue lysates
Protocol: Additionally, the increase of macrophages around the tumor was examined by immunoblot using lung tissue lysates. […] Through the results of this study, it could be observed that the non-phosphorylated point mutant had the effect of inhibiting polarization into tumor-associated macrophages.
Furthermore, CD68, a marker for a broad range of macrophages, and CD163, a marker for tumor-associated macrophages, were analyzed in lung tissues of mice using immunostaining. It was determined that the expression of both CD68 and CD163 markers was increased in the lung tissues of mice injected with the FoxM1 WT protein over-expressed cells (FIG. 13D). Through the present results, it could be observed that there was an effect of promoting the polarization of M2 tumor-associated macrophages in lung cancer cells expressing the FoxM1 WT protein.

A549 cells [2] = experiment: MTT viability of A549 cells co-cultured with THP-1 cells; assay type: cell-based; settings: ratios 1:0, 1:2, 1:4, 1:6, 48 hours
Protocol: The cell viability was measured to investigate whether the FoxM1 phosphorylation and non-phosphorylation point mutations affected the viability of lung cancer cells, after co-culturing the lung cancer cells (A549) expressing the FoxM1 phosphorylation and non-phosphorylated point mutants and monocyte THP-1 cells. A549 cells (4×10^4 cells/mL) and THP-1 cells were co-cultured at ratios of 1:0, 1:2, 1:4, and 1:6 for 48 hours, and after co-culturing for 48 h and washing off the THP-1 cells, the viability of A549 cells attached to the bottom was measured by an MTT assay.

A549 cells [3] = experiment: PD-L1 (CD274) mRNA in A549 cells by real-time PCR; assay type: cell-based
Protocol: To examine the mRNA expression levels of PD-1 and PD-L1, which are involved in solid tumor immune evasion, in THP-1 cells and the cells expressing the FoxM1 phosphorylated point mutant, the expression of PD-1 (CD279) mRNA, an immune evasion factor, was measured by qRT-PCR in THP-1 monocytes co-cultured with A549^S25E cells for 48 h (FIG. 7B). It was observed that the expression of mRNA of PD-L1 (CD274), an immune evasion factor, increased by 2 folds in the A549^S25E cells expressing the phosphorylated point mutant compared to the control group.

A549 cells [4] = experiment: Viability of A549 cells co-cultured with Jurkat cells; assay type: cell-based
Excerpt: In addition, through the co-culture of the A549 cells expressing the FoxM1 S25E phosphorylated point mutant (A549^S25E) and Jurkat cells as T cells, it was tried to examine the effects on cancer immunity of T cells (FIG. 7D).

Jurkat cells = experiment: CD25 and CD29 expression (qRT-PCR) in Jurkat cells co-cultured with A549 cells; assay type: cell-based; settings: co-culture 48 h
Protocol: To investigate the polarization into tumor-infiltrating T lymphocytes (TILs) by A549^S25E cells, the expression levels of CD25 and CD29, which were expressed in TILs, were analyzed by qRT-PCR after co-culturing Jurkat cells (1.2×10^5 cells) and A549^S25E cells (4×10^4 cells) for 48 h. As a result, it was observed that there was a significant increase of 3 folds or more, in the expression of CD25 and CD29 in Jurkat cells co-cultured with A549^S25E cells. […] Additionally, to investigate the inhibitory effect of A549^S25A cells on tumor immune evasion by TAMs or TILs in the tumor microenvironment, the viability change was examined by an MTT assay analysis after co-culturing A549 cells expressing the FoxM1 phosphorylation or non-phosphorylated point mutant, THP-1 cells, and Jurkat cells at a ratio of 1:0:0, 1:6:0, 1:0:6, and 1:6:6 for 48 h. […] That is, there was the inhibitory effect of the cells expressing non-phosphorylated point mutant on the tumor immune evasion by TAMs or TILs in the tumor microenvironment. Therefore, the present invention provided the inhibitory effects of the non-phosphorylated point mutant of FoxM1 on tumor immune evasion.

Molecule | migration / motility of cancer cells (in words) (A549 lung cancer cells) | cancer cell migration (stained intensity), increase compared to the control group (A549 lung cancer cells; Transwell, 72 hours, control set to 1, TGF-β 5 ng/ml positive control) | staining intensity value compared to the control group (A549 lung cancer cells; migration assay, 72 hours, control set to 1) | activity of caspase-3 (apoptosis) (A549 cells [1]) | protein expression of CD68 and CD163, immunoblot (lung tissues) | expression of CD68 and CD163 markers, immunostaining (lung tissues; lung tissues of injected mice) | viability of A549 cells co-cultured with THP-1 cells (A549 cells [2]) | mRNA expression of PD-L1 (CD274) compared to the control group (A549 cells [3]; A549 cells expressing the protein) | viability of A549 cells co-cultured with Jurkat cells (A549 cells [4]; ratio 1:2, 48 h) | viability of A549 cells co-cultured with Jurkat cells (A549 cells [4]; ratio 1:4, 48 h) | viability of A549 cells co-cultured with Jurkat cells (A549 cells [4]; ratio 1:6, 48 h) | expression of CD25 and CD29 in Jurkat cells (Jurkat cells) | migration / motility of cancer cells (in words) (A549 lung cancer cells; listed as S25 non-phosphorylated point mutant of FoxM1) | expression of CD68 and CD163 markers, immunostaining (in words) (lung tissues; lung tissues of injected mice) | mRNA (CD274) expression of PD-L1, reduction compared to the control group (A549 cells [3]; A549 cells expressing the mutant) | viability of A549 cells co-cultured with Jurkat cells (in words) (A549 cells [4]; compared to WT or phosphorylation mutant, 48 h) | expression of CD25 and CD29 in Jurkat cells (in words) (Jurkat cells)
S25E: FoxM1 phosphorylated point mutant of the S25 residue, expressed by lentivirus in A549 cells (protein, listed as Homo sapiens) MKTSPRRPLILKRRRLPLPVQNAPEETSEEEPKRSPAQQESNQAEASKEVAESNSCKFPAGIKIINHPTMPNTQVVAIPNNANIHSIITALTAKGKESGSSGPNKFILISCGGAPTQPPGLRPQTQTSYDAKRTEVTLETLGPKPAARDVNLPRPPGALCEQKRETCDGEAAGCTINNSLSNIQWLRKMSSDGLGSRSIKQEMEEKENCHLEQRQVKVEEPSRPSASWQNSVSERPPYSYMAMIQFAINSTERKRMTLKDIYTWIEDHFPYFKHIAKPGWKNSIRHNLSLHDMFVRETSANGKVSFWTIHPSANRYLTLDQVFKQQQKRPNPELRRNMTIKTELPLGARRKMKPLLPRVSSYLVPIQFPVNQSLVLQPSVKVPLPLAASLMSSELARHSKRVRIAPKVLLAEEGIAPLSSAGPGKEEKLLFGEGFSPLLPVQTIKEEEIQPGEEMPHLARPIKVESPPLEEWPSPAPSFKEESSHSWEDSSQSPTPRPKKSYSGLRSPTRCVSEMLVIQHRERRERSRSRRKQHLLPPCVDEPELLFSEGPSTSRWAAELPFPADSSDPASQLSYSQEVGGPFKTPIKETLPISSTPSKSVLPRTPESWRLTPPAKVGGLDFSPVQTSQGASDPLPDPLGLMDLSTTPLQSAPPLESPQRLLSSEPLDLISVPFGNSSPSDIDVPKPGSPEPQVSGLAANRSLTEGLVLDTMNDSLSKILLDISFPGLDEDPLGPDNINWSQFIPELQ | promoted the motility of lung cancer cells | approximately 6 fold | up to 6 times | lowest activity of caspase-3 | significantly higher | approximately 3 times | gradually increased | 2 folds | 1.2 folds | 1.3 folds | 1.5 folds | ≥ 3 folds | – | – | – | – | –
S25A: FoxM1 protein with Ser25 substituted with alanine, non-phosphorylated point mutant, expressed by lentivirus in A549 cells (protein, left off: a dimerising Fc or GST, FoxM1 protein with Ser25 substituted with alanine, non-phosphorylated point mutant, expressed by lentivirus in A549 cells) MKTSPRRPLILKRRRLPLPVQNAPAETSEEEPKRSPAQQESNQAEASKEVAESNSCKFPAGIKIINHPTMPNTQVVAIPNNANIHSIITALTAKGKESGSSGPNKFILISCGGAPTQPPGLRPQTQTSYDAKRTEVTLETLGPKPAARDVNLPRPPGALCEQKRETCDGEAAGCTINNSLSNIQWLRKMSSDGLGSRSIKQEMEEKENCHLEQRQVKVEEPSRPSASWQNSVSERPPYSYMAMIQFAINSTERKRMTLKDIYTWIEDHFPYFKHIAKPGWKNSIRHNLSLHDMFVRETSANGKVSFWTIHPSANRYLTLDQVFKQQQKRPNPELRRNMTIKTELPLGARRKMKPLLPRVSSYLVPIQFPVNQSLVLQPSVKVPLPLAASLMSSELARHSKRVRIAPKVLLAEEGIAPLSSAGPGKEEKLLFGEGFSPLLPVQTIKEEEIQPGEEMPHLARPIKVESPPLEEWPSPAPSFKEESSHSWEDSSQSPTPRPKKSYSGLRSPTRCVSEMLVIQHRERRERSRSRRKQHLLPPCVDEPELLFSEGPSTSRWAAELPFPADSSDPASQLSYSQEVGGPFKTPIKETLPISSTPSKSVLPRTPESWRLTPPAKVGGLDFSPVQTSQGASDPLPDPLGLMDLSTTPLQSAPPLESPQRLLSSEPLDLISVPFGNSSPSDIDVPKPGSPEPQVSGLAANRSLTEGLVLDTMNDSLSKILLDISFPGLDEDPLGPDNINWSQFIPELQ | reduced | – | – | highest activity of caspase-3 | lower | – | not changed compared to the control group | – | – | – | – | – | effectively suppressed the motility of lung cancer cells | significantly low | about 50% | significantly decreased | significantly inhibiting effect
